Results from patent US20110158985A1.

Biological target: F protein of RSV (Long strain) (RSV (Long strain)) (UniProt P12568)
Assay: cell-based or functional assay

F protein of RSV (Long strain) (RSV (Long strain)), sequence (P12568 26-574): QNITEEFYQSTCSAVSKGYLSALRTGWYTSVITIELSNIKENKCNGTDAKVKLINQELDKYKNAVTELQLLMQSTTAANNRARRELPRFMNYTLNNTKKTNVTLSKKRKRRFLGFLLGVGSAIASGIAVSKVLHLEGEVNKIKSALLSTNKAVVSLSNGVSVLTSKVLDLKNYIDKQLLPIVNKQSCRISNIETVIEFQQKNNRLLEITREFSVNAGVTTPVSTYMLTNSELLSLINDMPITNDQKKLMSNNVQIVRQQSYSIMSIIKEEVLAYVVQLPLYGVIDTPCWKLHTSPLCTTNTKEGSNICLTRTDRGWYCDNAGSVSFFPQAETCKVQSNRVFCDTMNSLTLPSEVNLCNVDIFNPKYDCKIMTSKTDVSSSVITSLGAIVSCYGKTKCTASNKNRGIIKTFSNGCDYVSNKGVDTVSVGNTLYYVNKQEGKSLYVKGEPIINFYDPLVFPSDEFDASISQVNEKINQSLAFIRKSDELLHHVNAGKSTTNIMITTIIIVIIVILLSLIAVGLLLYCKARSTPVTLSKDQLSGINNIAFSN
palivizumab F(ab')2, sequence (VH): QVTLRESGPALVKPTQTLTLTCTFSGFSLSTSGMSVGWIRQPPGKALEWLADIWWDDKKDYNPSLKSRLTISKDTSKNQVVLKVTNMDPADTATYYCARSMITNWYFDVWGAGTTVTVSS
palivizumab F(ab')2, sequence (VL): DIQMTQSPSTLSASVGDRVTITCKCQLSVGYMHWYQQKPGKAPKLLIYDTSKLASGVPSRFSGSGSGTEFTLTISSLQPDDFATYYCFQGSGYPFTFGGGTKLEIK

## palivizumab F(ab')2
  Microneutralization IC50: 1.4 nM
